# Numbering of substitutions follows the chain as printed.
# B1: IgG1-F651 (antibody)
# heavy: QVQLQESGPGLVKPSETLSLTCAVSGHSISHDHAWSWVRQPPGEGLEWIGFISYSGITNYNPSLQGRVTISRDNSKNTLYLQMNSLRAEDTAVYYCARSLARTTAMDYWGEGTLVTVSSASTKGPSVFPLAPSSKSTSGGTAALGCLVKDYFPEPVTVSWNSGALTSGVHTFPAVLQSSGLYSLSSVVTVPSSSLGTQTYICNVNHKPSNTKVDKKVEPKSCDKTHTCPPCPAPELLGGPKVFLFPPKPKDTLYISRTPEVTCVVVDVSHEDPEVKFNWYVDGVEVHNAKTKPREEQYNSTYRVVSVLTVLHADWLNGKEYKCKVSNKALPAPIEKTISKAKGQPREPQVYTLPPSRDELTKNQVSLTCLVKGFYPSDIAVEWESNGQPENNYKTTPPVLDSDGSFFLYSKLTVDKSRWQQGNVFSCSVMHEALHYHYTQKSLSLSP
# light: not shown
# notes: EU numbering; copies: 2 + 2
# B2: IgG1-F693 (antibody)
# heavy: B1 heavy with K241S, K290R, V310P, A313Q
# light: not shown
# notes: EU numbering; copies: 2 + 2
# B3: IgG1-F658 (antibody)
# heavy: B1 heavy with P240K, V310P, A313Q
# light: not shown
# notes: EU numbering; copies: 2 + 2
# B4: IgG1-F708 (antibody)
# heavy: B1 heavy with K241S, N288E, T309Q, V310P, M430I
# light: not shown
# notes: EU numbering; copies: 2 + 2
# B5: IgG1-F670 (antibody)
# heavy: B1 heavy with K241S, N288K, V310P, A313Q
# light: not shown
# notes: EU numbering; copies: 2 + 2
# B6: IgG1-F684 (antibody)
# heavy: B1 heavy with K241S, K290F, V310P, A313Q
# light: not shown
# notes: EU numbering; copies: 2 + 2
# B7: IgG1-F713 (antibody)
# heavy: B1 heavy with P240D, K241S, N288E, T309Q
# light: not shown
# notes: EU numbering; copies: 2 + 2
# B8: IgG1-F665 (antibody)
# heavy: B1 heavy with K241S, N288D, V310P, A313Q
# light: not shown
# notes: EU numbering; copies: 2 + 2
# B9: IgG1-F716 (antibody)
# heavy: B1 heavy with P240D, K241S, A313Q, N327L
# light: not shown
# notes: EU numbering; copies: 2 + 2
# B10: IgG1-F679 (antibody)
# heavy: B1 heavy with K241S, N288W, V310P, A313Q
# light: not shown
# notes: EU numbering; copies: 2 + 2
# B11: IgG1-F691 (antibody)
# heavy: B1 heavy with K241S, K290P, V310P, A313Q
# light: not shown
# notes: EU numbering; copies: 2 + 2
# B12: IgG1-F657 (antibody)
# heavy: B1 heavy with G239R, V310P, A313Q
# light: not shown
# notes: EU numbering; copies: 2 + 2
# B13: IgG1-F690 (antibody)
# heavy: B1 heavy with K241S, K290N, V310P, A313Q
# light: not shown
# notes: EU numbering; copies: 2 + 2
# B14: IgG1-F705 (antibody)
# heavy: B1 heavy with K241S, N288E, V310P, A313Q, M430I
# light: not shown
# notes: EU numbering; copies: 2 + 2
# B15: IgG1-F676 (antibody)
# heavy: B1 heavy with K241S, N288S, V310P, A313Q
# light: not shown
# notes: EU numbering; copies: 2 + 2
# B16: IgG1-F663 (antibody)
# heavy: B1 heavy with N288E, T309Q, V310P
# light: not shown
# notes: EU numbering; copies: 2 + 2
# B17: IgG1-F709 (antibody)
# heavy: B1 heavy with N288E, T309Q, M430I
# light: not shown
# notes: EU numbering; copies: 2 + 2
# B18: IgG1-F700 (antibody)
# heavy: B1 heavy with K241S, V310P, A313Q, L330E
# light: not shown
# notes: EU numbering; copies: 2 + 2
# B19: IgG1-F671 (antibody)
# heavy: B1 heavy with K241S, N288L, V310P, A313Q
# light: not shown
# notes: EU numbering; copies: 2 + 2
# B20: IgG1-F666 (antibody)
# heavy: B1 heavy with K241S, N288F, V310P, A313Q
# light: not shown
# notes: EU numbering; copies: 2 + 2
# B21: IgG1-F692 (antibody)
# heavy: B1 heavy with K241S, K290Q, V310P, A313Q
# light: not shown
# notes: EU numbering; copies: 2 + 2
# B22: IgG1-F689 (antibody)
# heavy: B1 heavy with K241S, K290M, V310P, A313Q
# light: not shown
# notes: EU numbering; copies: 2 + 2
# B23: IgG1-F652 (antibody)
# heavy: B1 heavy with P240D, K241S, A313Q
# light: not shown
# notes: copies: 2 + 2
# B24: IgG1-F686 (antibody)
# heavy: B1 heavy with K241S, K290H, V310P, A313Q
# light: not shown
# notes: EU numbering; copies: 2 + 2
# B25: IgG1-F675 (antibody)
# heavy: B1 heavy with K241S, N288R, V310P, A313Q
# light: not shown
# notes: EU numbering; copies: 2 + 2
# B26: IgG1-F682 (antibody)
# heavy: B1 heavy with K241S, K290D, V310P, A313Q
# light: not shown
# notes: EU numbering; copies: 2 + 2
# B27: IgG1-F715 (antibody)
# heavy: B1 heavy with P240D, K241S, A313Q, N327M
# light: not shown
# notes: EU numbering; copies: 2 + 2
# B28: IgG1-F661 (antibody)
# heavy: B1 heavy with V310P, A313Q, P331R
# light: not shown
# notes: EU numbering; copies: 2 + 2
# B29: IgG1-F683 (antibody)
# heavy: B1 heavy with K241S, K290E, V310P, A313Q
# light: not shown
# notes: EU numbering; copies: 2 + 2
# B30: IgG1-F688 (antibody)
# heavy: B1 heavy with K241S, K290L, V310P, A313Q
# light: not shown
# notes: EU numbering; copies: 2 + 2
# B31: IgG1-F656 (antibody)
# heavy: B1 heavy with G239K, V310P, A313Q
# light: not shown
# notes: EU numbering; copies: 2 + 2
# B32: IgG1-F672 (antibody)
# heavy: B1 heavy with K241S, N288M, V310P, A313Q
# light: not shown
# notes: EU numbering; copies: 2 + 2
# B33: IgG1-F677 (antibody)
# heavy: B1 heavy with K241S, N288T, V310P, A313Q
# light: not shown
# notes: EU numbering; copies: 2 + 2
# B34: IgG1-F697 (antibody)
# heavy: B1 heavy with V310P, A313Q, N327G
# light: not shown
# notes: EU numbering; copies: 2 + 2
# B35: IgG1-F678 (antibody)
# heavy: B1 heavy with K241S, N288V, V310P, A313Q
# light: not shown
# notes: EU numbering; copies: 2 + 2
# B36: IgG1-F685 (antibody)
# heavy: B1 heavy with K241S, K290G, V310P, A313Q
# light: not shown
# notes: EU numbering; copies: 2 + 2
# B37: IgG1-F674 (antibody)
# heavy: B1 heavy with K241S, N288Q, V310P, A313Q
# light: not shown
# notes: EU numbering; copies: 2 + 2
# B38: IgG1-F681 (antibody)
# heavy: B1 heavy with K241S, K290A, V310P, A313Q
# light: not shown
# notes: EU numbering; copies: 2 + 2
# B39: IgG1-F711 (antibody)
# heavy: B1 heavy with T309Q
# light: not shown
# notes: EU numbering; copies: 2 + 2
# B40: IgG1-F710 (antibody)
# heavy: B1 heavy with P240D, K241S, N288E, T309Q, M430I
# light: not shown
# notes: EU numbering; copies: 2 + 2
# B41: IgG1-F655 (antibody)
# heavy: B1 heavy with L237R, V310P, A313Q
# light: not shown
# notes: EU numbering; copies: 2 + 2
# B42: IgG1-F706 (antibody)
# heavy: B1 heavy with K241S, N288E, T309Q, M430I
# light: not shown
# notes: EU numbering; copies: 2 + 2
# B43: IgG1-F668 (antibody)
# heavy: B1 heavy with K241S, N288H, V310P, A313Q
# light: not shown
# notes: EU numbering; copies: 2 + 2
# B44: IgG1-F664 (antibody)
# heavy: B1 heavy with K241S, N288A, V310P, A313Q
# light: not shown
# notes: EU numbering; copies: 2 + 2
# B45: IgG1-F695 (antibody)
# heavy: B1 heavy with K241S, K290W, V310P, A313Q
# light: not shown
# notes: EU numbering; copies: 2 + 2
# B46: IgG1-F660 (antibody)
# heavy: B1 heavy with V310P, A313Q, P331K
# light: not shown
# notes: EU numbering; copies: 2 + 2
# B47: IgG1-F714 (antibody)
# heavy: B1 heavy with P240D, K241S, A313Q, N327S
# light: not shown
# notes: EU numbering; copies: 2 + 2
# B48: IgG1-F659 (antibody)
# heavy: B1 heavy with P240R, V310P, A313Q
# light: not shown
# notes: EU numbering; copies: 2 + 2
# B49: IgG1-F654 (antibody)
# heavy: B1 heavy with L237K, V310P, A313Q
# light: not shown
# notes: EU numbering; copies: 2 + 2
# B50: IgG1-F680 (antibody)
# heavy: B1 heavy with K241S, N288Y, V310P, A313Q
# light: not shown
# notes: EU numbering; copies: 2 + 2
# B51: IgG1-F694 (antibody)
# heavy: B1 heavy with K241S, K290V, V310P, A313Q
# light: not shown
# notes: EU numbering; copies: 2 + 2
# B52: IgG1-F687 (antibody)
# heavy: B1 heavy with K241S, K290I, V310P, A313Q
# light: not shown
# notes: EU numbering; copies: 2 + 2
# B53: IgG1-F699 (antibody)
# heavy: B1 heavy with N288E, T309Q
# light: not shown
# notes: EU numbering; copies: 2 + 2
# B54: IgG1-F669 (antibody)
# heavy: B1 heavy with K241S, N288I, V310P, A313Q
# light: not shown
# notes: EU numbering; copies: 2 + 2
# B55: IgG1-F667 (antibody)
# heavy: B1 heavy with K241S, N288G, V310P, A313Q
# light: not shown
# notes: EU numbering; copies: 2 + 2
# B56: IgG1-F696 (antibody)
# heavy: B1 heavy with K241S, K290Y, V310P, A313Q
# light: not shown
# notes: EU numbering; copies: 2 + 2
# B57: IgG1-F673 (antibody)
# heavy: B1 heavy with K241S, N288P, V310P, A313Q
# light: not shown
# notes: EU numbering; copies: 2 + 2
# B58: IgG1-F698 (antibody)
# heavy: B1 heavy with K241S, N288E, T309Q
# light: not shown
# notes: EU numbering; copies: 2 + 2
# B59: IgG1-F707 (antibody)
# heavy: B1 heavy with K241S, N288E, T309Q, V310P
# light: not shown
# notes: EU numbering; copies: 2 + 2
# B60: IgG1-F712 (antibody)
# heavy: B1 heavy with P240D, K241S, T309Q
# light: not shown
# notes: EU numbering; copies: 2 + 2
# Molecular target: T1, human FcRn (soluble human FcRn complexed with β2-microglobulin) (human, UniProt P61769 21-119, limits assumed)
# T1 construct: also called hFcRn
# Experiment: SPR, pH 7.0;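 further: antibodies captured on a Protein L sensor chip with human FcRn injected as analyte, KD calculated from fitted association and dissociation rate constants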
# Protocol: A kinetic analysis of binding between human FcRn and the aforementioned antibodies was carried out using the BIACORE™ T100 or T200 surface plasmon resonance system (GE Healthcare). The antibodies being tested were captured on the CM4 Sensor Chip (GE Healthcare) on which a suitable amount of Protein L (ACTIGEN® protein (Alltech)) was suitably immobilized by amine coupling. Next, diluted human FcRn and a running buffer used as a blank were injected to allow the human FcRn to interact with the antibody captured on the sensor chip. A buffer consisting of 50 mmol/L sodium phosphate, 150 mmol/L NaCl and 0.05% (w/v) polysorbate 20 (Tween 20®) (pH 7.0 or pH 7.4) was used for the running buffer, and each buffer was also used to dilute the human FcRn. 10 mmol/L glycine-HCl (pH 1.5) was used to regenerate the sensor chip. All measurements of binding were carried out at 25° C. The KD(M) of each antibody to human FcRn was calculated based on kinetics parameters, i.e., the association rate constant ka (1/Ms) and the dissociation rate constant kd (1/s) calculated from a sensorgram obtained by the measurement. The BIACORE™ T100 or T200 Evaluation Software (GE Healthcare) was used to calculate each parameter.
row,Kd [nM],Binder
1,180,B1
2,36,B2
3,32,B3
4,4.1,B4
5,210,B5
6,51,B6
7,20,B7
8,20,B8
9,270,B9
10,17,B10
11,320,B11
12,32,B12
13,100,B13
14,7.1,B14
15,32,B15
16,6.4,B16
17,20,B17
18,52,B18
19,22,B19
20,21,B20

row,Kd [nM],Binder
1,39,B21
2,41,B22
3,240,B23
4,46,B24
5,51,B25
6,82,B26
7,230,B27
8,34,B28
9,50,B29
10,28,B30
11,33,B31
12,24,B32
13,47,B33
14,31,B34
15,33,B35
16,53,B36
17,32,B37
18,49,B38
19,65,B39
20,15,B40

row,Kd [nM],Binder
1,34,B41
2,18,B42
3,40,B43
4,39,B44
5,40,B45
6,31,B46
7,230,B47
8,30,B48
9,32,B49
10,15,B50
11,47,B51
12,49,B52
13,23,B53
14,35,B54
15,30,B55
16,44,B56
17,23,B57
18,22,B58
19,5.9,B59
20,60,B60
